According to patent US20230012273A1 (Boehringer Ingelheim, published 2023):

Columns and labels:
[1] = target: ED-tagged human SIRPα V2 receptor on Jurkat signaling reporter cells (human, UniProt P78324 31-504); experiment: cell-based or functional assay
[2] = target: ED-tagged human SIRPα V1 receptor on Jurkat signaling reporter cells (human, UniProt P78324 31-504); experiment: cell-based or functional assay
[3] = target: T1, full-length human SIRPβ1 D→H on Expi-CHO cells (human, UniProt O00241 30-398); experiment: flow cytometry, Expi-CHO cells expressing full-length human SIRPβ1 D→H
T1 construct: the entry already carries the change (PDDV to PDHV)
Method: (§1) These cells are blocked with donkey IgG and incubated on ice with increasing concentrations of antibodies for 60 minutes, washed and stained with AF647-conjugated donkey F(ab′)₂ anti-human IgG antibodies. Stained cells are washed, fixed, and analyzed by flow cytometry. Median fluorescent intensity is determined and used as a measure of antibody binding.

[4] = target: T2, full-length human SIRPβL H→D on Expi-CHO cells (human, UniProt Q5TFQ8 30-398); experiment: flow cytometry, Expi-CHO cells
T2 construct: the entry already carries the change (PDHV to PDDV); also called βL WT H→D
Method: as §1, with “Expi-CHO parental cells are transduced with lentiviruses containing either full-length wild-type human SIRPβL (Q5TFQ8) or full-length human SIRPβL with a single amino acid point mutation (Table 62) and sorted to achieve matching expression levels. These” for “These”
A single amino acid substitution (H→D) introduced within the loop region maintained, strengthened, or facilitated antibody binding to these cells (FIG. 34B, Table 63).

[5] = target: T3, full-length human SIRPαV1 D→E on Expi-CHO cells (human, UniProt P78324 31-504); experiment: flow cytometry, Expi-CHO cells
T3 construct: the entry already carries the change (PDDV to PEDV)
Method: as §1, with “Expi-CHO parental cells are transduced with lentiviruses containing either full-length wild-type human SIRPαV1 allele (NP_542970.1) or full-length human SIRPαV1 with amino acid point mutations (Table 56) and sorted to achieve matching expression levels. These” for “These”

[6] = target: T4, full-length human SIRPαV1 DD→EN on Expi-CHO cells (human, UniProt P78324 31-504); experiment: flow cytometry, Expi-CHO cells
T4 construct: the entry already carries the change (PDDV to PENV)
Method: as §1, with “Expi-CHO parental cells are transduced with lentiviruses containing either full-length wild-type human SIRPαV1 allele (NP_542970.1) or full-length human SIRPαV1 with amino acid point mutations (Table 56) and sorted to achieve matching expression levels. These” for “These”

[7] = target: T5, full-length human SIRPαV1 N→E on Expi-CHO cells (human, UniProt P78324 31-504); experiment: flow cytometry, Expi-CHO cells
T5 construct: the entry already carries the change (TKRN to TKRE)
Method: as §1, with “Expi-CHO parental cells are transduced with lentiviruses containing either full-length wild-type human SIRPαV1 allele (NP_542970.1) or full-length human SIRPαV1 with amino acid point mutations (Table 56) and sorted to achieve matching expression levels. These” for “These”

[8] = target: T6, full-length human SIRPαV1 (NP_542970.1) on cells (human, UniProt P78324 31-504); experiment: flow cytometry, Expi-CHO cells
T6 construct: one molecule for CHO-K1 and Expi-CHO transfectants (NP_542970.1) and for endogenous V1 on U-937 cells and on CD14+ monocytes of V1/V1 donors; also called CHO-hSIRPαV1; αV1 WT
Method: as §1, with “Expi-CHO parental cells are transduced with lentiviruses containing either full-length wild-type human SIRPαV1 allele (NP_542970.1) or full-length human SIRPαV1 with amino acid point mutations (Table 56) and sorted to achieve matching expression levels. These” for “These”

[9] = target: T7, full-length human SIRPαV1 D→N on Expi-CHO cells (human, UniProt P78324 31-504); experiment: flow cytometry, Expi-CHO cells
T7 construct: the entry already carries the change (PDDV to PDNV)
Method: as §1, with “Expi-CHO parental cells are transduced with lentiviruses containing either full-length wild-type human SIRPαV1 allele (NP_542970.1) or full-length human SIRPαV1 with amino acid point mutations (Table 56) and sorted to achieve matching expression levels. These” for “These”

[10] = target: T8, full-length human SIRPαV2 (CAA71403.1) on cells (human, UniProt P78324 31-504); experiment: flow cytometry, competition with CD47 tetramer, CHO-K1 cells
T8 construct: one molecule for CHO-K1 and Expi-CHO transfectants (CAA71403.1) and for endogenous V2 on THP-1 cells and on CD14+ monocytes of V2/V2 donors; also called CHO-hSIRPαV2; αV2 WT
Method: Cells are washed, fixed, and analyzed by flow cytometry. Median fluorescent intensity is determined and used as a measure of CD47 binding.

[11] = target: T9, full-length human SIRPαV2 D→E on Expi-CHO cells (human, UniProt P78324 31-504); experiment: flow cytometry, Expi-CHO cells
T9 construct: the entry already carries the change (SPDT to SPET)
Method: as §1, with “Expi-CHO parental cells are transduced with lentiviruses containing either full-length wild-type human SIRPαV2 allele (CAA71403.1) or full-length human SIRPαV2 with amino acid point mutations (Table 58) and sorted to achieve matching expression levels. These” for “These”

[12] = target: T8, full-length human SIRPαV2 (CAA71403.1) …; experiment: flow cytometry, Expi-CHO cells
Method: as §1, with “Expi-CHO parental cells are transduced with lentiviruses containing either full-length wild-type human SIRPαV2 allele (CAA71403.1) or full-length human SIRPαV2 with amino acid point mutations (Table 58) and sorted to achieve matching expression levels. These” for “These”

[13] = target: T10, full-length human SIRPαV2 E→N on Expi-CHO cells (human, UniProt P78324 31-504); experiment: flow cytometry, Expi-CHO cells
T10 construct: the entry already carries the change (TKRE to TKRN)
Method: as §1, with “Expi-CHO parental cells are transduced with lentiviruses containing either full-length wild-type human SIRPαV2 allele (CAA71403.1) or full-length human SIRPαV2 with amino acid point mutations (Table 58) and sorted to achieve matching expression levels. These” for “These”

[14] = target: T6, full-length human SIRPαV1 (NP_542970.1) …; experiment: flow cytometry, competition with CD47 tetramer, monocytes V1V1
Method: Cells are washed, fixed, and analyzed by flow cytometry. Median fluorescent intensity of CD14+gated population is determined and used as a measure of CD47 binding.

[15] = target: T6, full-length human SIRPαV1 (NP_542970.1) …; experiment: flow cytometry, CD14+ monocytes V1V1
Method: (§2) Antibody binding to primary human cells expressing SIRPα is evaluated by flow cytometry. Human peripheral blood mononuclear cells (PBMCs) from donors genotyped as homozygous for the SIRPα V1 allele, V2 allele, or heterozygous for both alleles are blocked with donkey IgG and incubated on ice with increasing concentrations of antibody for 60 minutes, washed and stained with AF647-conjugated donkey F(ab′)₂ anti-human IgG secondary reagent. […] Cells are washed, fixed, and analyzed by flow cytometry. Median fluorescent intensity of the CD14+ population was determined and used as a measure of antibody binding.

[16] = target: T8, full-length human SIRPαV2 (CAA71403.1) …; experiment: flow cytometry, CD14+ monocytes V2V2
Method: as §2

Binder | Blockade of Cellular CD47-Mediated SIRPα Signaling; IC50 [1] [nM] | Blockade of Cellular CD47-Mediated SIRPα Signaling; IC50 [2] [nM] | binding result [3] | EC50 [4] [nM] | EC50 [5] [nM] | EC50 [6] [nM] | EC50 [7] [nM] | EC50 [8] [nM] | EC50 [9] [nM] | IC50 [10] [nM] | EC50 [11] [nM] | EC50 [12] [nM] | EC50 [13] [nM] | IC50 [14] [nM] | EC50 [15] [nM] | EC50 [16] [nM] | Blockade of Cellular CD47-Mediated SIRPα Signaling; IC50 (* Inhibition plateaus at <100%) [1] [nM]
Antibody A (antibody, human IgG1, kappa, L234A L235A) heavy: not shown light: DIQMTQSPSSLSASVGDRVTITCRASQDINNYLAWFQQKPGKAPKSLIYTASSLHSGVPSKFSGSGSGTDFTLTISSLQPEDFATYYCQQYVSYPYTFGQGTKLEIKRTVAAPSVFIFPPSDEQLKSGTASVVCLLNNFYPREAKVQWKVDNALQSGNSQESVTEQDSKDSTYSLSSTLTLSKADYEKHKVYACEVTHQGLSSPVTKSFNRGEC | 0.04 | 0.04 | no binding (tested: about 67 nM) | 0.5 |  |  |  |  |  |  |  |  |  |  |  |  | 
Antibody A10 (antibody, human IgG1, kappa, L234A L235A) heavy: not shown light: DIQMTQSPSSLSASVGDRVTITCRASQDINNYLAWFQQKPGKAPKSLIYTASSLHSGVPSKFSGSGSGTDFTLTISSLQPEDFATYYCQQYVSYPYTFGQGTKLEIKRTVAAPSVFIFPPSDEQLKSGTASVVCLLNNFYPREAKVQWKVDNALQSGNSQESVTEQDSKDSTYSLSSTLTLSKADYEKHKVYACEVTHQGLSSPVTKSFNRGEC | 0.04 | 0.04 | no binding (tested: about 67 nM) | 0.6 |  |  |  |  |  |  |  |  |  |  |  |  | 
Antibody B (antibody, human IgG1, kappa, L234A L235A, V domains shown) VH: QVQLVQSGAEVKKPGASVKVSCKASGYTFTGNYMHWVRQAPGQGLEWMGWINPNSGGTNYAQKFQGRVTMTRDTSISTAYMELSRLRSDDTAVYYCVSGSGWYENYYYYGMDVWGQGTTVTVSS VL: DIQMTQSPSSVSASVGDRVTITCRASQGISSWLAWYQQKPGKAPKLLIYAESSLQSGVPSRFSGSGSGTDFTLTISSLQPEDFATYYCQQANSFPLTFGGGTKVEIKR |  | 0.76 |  |  | 3.7 |  | 4.5 | 3.8 |  | 6 | 3.7 | 3.6 | 4.1 | 2.55 | 26.6 | 21.8 | 
Antibody E (antibody, human IgG1, kappa, L234A L235A) heavy: not shown light: DIVMTQSPLSLPVTPGEPASISCKSSQSLLYSNGYNYLDWYLQRPGQSPQLLIYLGSNRASGVPDRFSGSGSGTDFTLKISRVEAEDVGVFYCMQALQTPLTFGGGTKVEIKRTVAAPSVFIFPPSDEQLKSGTASVVCLLNNFYPREAKVQWKVDNALQSGNSQESVTEQDSKDSTYSLSSTLTLSKADYEKHKVYACEVTHQGLSSPVTKSFNRGEC |  | 0.04 | no binding (tested: about 67 nM) | 0.5 | 0.4 | 0.4 | 0.5 | 0.5 | 0.4 |  | 0.3 | 0.3 | 0.3 | 0.09 | 0.4 | 0.7 | 0.04
Antibody E22 (antibody, human IgG1, kappa, L234A L235A, V domains shown) VH: QVQLQESGPGLVKPSETLSLTCTVSGGSIRDYYWSWIRQPPGKGLEWIGFIYYNGRTFYQSSLKSRVTISLDTSKNQFSLKMTSVTAADTAVYYCARVRAYSGIGLDGTDVWGQGTTVTVSS VL: DIVMTQSPLSLPVTPGEPASISCRSSQSLLYSTGYTYLDWYLQRPGQSPQLLIYGGSSRASGVPDRFSGSGSGTDFTLKISRVEAEDVGVFYCGQALQTPLTFGQGTKVEIKR |  | 0.07 | no binding (tested: about 67 nM) | 0.7 | 0.7 | 0.6 | 0.9 | 0.8 | 0.8 |  | 0.4 | 0.4 | 0.4 | 0.25 | 0.8 | 0.4 | 0.07

Further lines, results first:

Blockade of Cellular CD47-Mediated SIRPα Signaling; IC50 [1] [nM] | Blockade of Cellular CD47-Mediated SIRPα Signaling; IC50 [2] [nM] | binding result [3] | EC50 [4] [nM] | EC50 [5] [nM] | EC50 [6] [nM] | EC50 [7] [nM] | EC50 [8] [nM] | EC50 [9] [nM] | IC50 [10] [nM] | EC50 [11] [nM] | EC50 [12] [nM] | EC50 [13] [nM] | IC50 [14] [nM] | EC50 [15] [nM] | EC50 [16] [nM] | Blockade of Cellular CD47-Mediated SIRPα Signaling; IC50 (* Inhibition plateaus at <100%) [1] [nM] | Binder
0.03 | 0.04 | no binding (tested: about 67 nM) | 0.3 | 0.2 | 1.1 | 0.3 | 0.3 | 2.7 | 0.3 | 0.2 | 0.2 | 0.2 | 0.04 | 0.6 | 0.3 |  | Antibody C (antibody, human IgG1, kappa, L234A L235A, V domains shown) VH: EVQLVESGGGLVQPGGSLRLSCAASGFTFSSYDMHWVRQATGKGLEWVSVIGIAGDTYYPGSVKGRFTISRENAKNSLYLQMNSLRVGDTAVYYCARGGSWDDAFDIWGQGTMVTVSS VL: DIQMTQSPSSLSASIGDKVTITCRASQDINNYLAWFQQKPGKAPKSLIYTASSLQSGVPSKFSGSGSGTDFTLTISSLQPEDFATYYCQQYVSYPYTFGQGTKLEIKR
 |  |  | 0.5 | 0.2 | 0.2 | 0.5 | 0.3 | 0.2 | 0.6 | 0.2 | 0.2 | 0.2 | 0.07 | 0.2 | 0.1 |  | Anti-SIRPα antibody KWAR23 (antibody, V domains shown) VH: EVQLQQSGAELVKPGASVKLSCTASGFNIKDYYIHWVQQRTEQGLEWIGRIDPEDGETKYAPKFQDKATITADTSSNTAYLHLSSLTSEDTAVYYCARWGAYWGQGTLVTVSS VL: QIVLTQSPAIMSASPGEKVTLTCSASSSVSSSYLYWYQQKPGSSPKLWIYSTSNLASGVPARFSGSGSGTSYSLTISSMEAEDAASYFCHQWSSYPRTFGAGTKLELK
